Article PMC4066673

Substrate: CCCCCCCCCCCCCC(=O)SCCNC(=O)CCNC(=O)[C@H](O)C(C)(C)COP(=O)(O)OP(=O)(O)OC[C@H]1O[C@@H](n2cnc3c(N)ncnc32)[C@H](O)[C@@H]1OP(=O)(O)O
Experiment: purified protein
Conditions: pH 7.5; 25.0 °C

B1: hTHEM4 (Homo sapiens) (protein)
chain: SSEEVILKDCSVPNPSWNKDLRLLFDQFMKKCEDGSWKRLPSYKRTPTEWIQDFKTHFLDPKLMKEEQMSQAQLFTRSFDDGLGFEYVMFYNDIEKRMVCLFQGGPYLEGPPGFIHGGAIATMIDATVGMCAMMAGGIVMTANLNINYKRPIPLCSVVMINSQLDKVEGRKFFVSCNVQSVDEKTLYSEATSLFIKLNPAKSLT
  kcat/Km: 1.7e+06 M⁻¹ s⁻¹
